From paper PMC5585231, “Endocytic sorting motif interactions involved in Nef-mediated downmodulation of CD4 and CD3” (Nature Communications, 2017)

Target: T1, CD3 ζ SNID2 peptide (22-mer) (human)
T1 construct: also called second ITAM motif of CD3 ζ; source: synthetic peptide (in house, Boc chemistry, RP-HPLC)
T1 peptide: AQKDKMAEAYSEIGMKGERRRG
Assay: ITC; Nef (typically 200 µM) injected stepwise from the syringe into 20 µM CD3 ζ peptide in the cell; 20 mM HEPES pH 8.0, 100 mM NaCl, 25 °C; MicroCal iTC200
Conditions: both partners purified

B1: SIVmac239 Nef (66-235) (domain or fragment)
chain: MATPWRNPAEEREKLAYRKQNMDDIDEEDDDLVGVSVRPKVPLRTMSYKLAIDMSHFIKEKGGLEGIYYSARRHRILDIYLEKEEGIIPDWQDYTSGPGIRYPKTFGWLWKLVPVNVSDEAQEDEEHYLMHPAQTSQWDDPWGEVLAWKFDPTLAYTYEAYVRYPEEFGS
notes: pGEX-4T1 with a TEV site; also called SIV-B; SIV Nef-B; source: E. coli BL21(DE3), purified (GSH resin, size exclusion chromatography)
  stoichiometry N: 1.07
